Assay results: paper PMC3197140

Biological target: ^15N labeled FLNA repeat 21

MASKPEKRVASSVFITLAPPRRDVRRRRRRRRR [WTMigfilinR9 peptide]
CBRM1/5 binding (αMβ2 activation) on human neutrophils treated with 50 µM peptide for 5 min at 37°C, flow cytometry: 2 fold
